Results from the supplement of paper PMC7125110.
± gives the standard error. Variants at the floor of the assay were thinned out.

B1: glmS ribozyme (parent)
chain: AUAAAAGCGCCAGAACUACAGAAAUGUAGUUGACGAGGAGGAGGUUUAUCGAAUUUUCGGCGGAUGCCUCCAAA

Columns and labels:
Conditions in all cases: with glucosamine-6-phosphate
glucosamine-6-phosphate [1] = variants of: B1; experiment: self-cleavage kobs at 40 uM GlcN6P; higher = faster cleavage; RNA array
Method in brief: (§1)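 Tiles bearing barcoded ribozyme variants, transcribed in situ by E. coli RNA polymerase on sequenced MiSeq chips, were imaged over ~14 h at 37 °C using a hybridised Cy3 probe. Glucosamine-6-phosphate was supplied at 40 μM to 10 mM in HEPES/KCl/Mg(OAc)2 buffer. kobs came from one- or two-exponential decay fits to normalised per-tile medians, and weighted Michaelis–Menten fits then provided kcat and KM.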

glucosamine-6-phosphate [2] = variants of: B1; experiment: self-cleavage kobs at 10000 uM GlcN6P; higher = faster cleavage; RNA array
Method in brief: as §1

glucosamine-6-phosphate [3] = variants of: B1; experiment: self-cleavage kobs at 640 uM GlcN6P; higher = faster cleavage; RNA array
Method in brief: as §1

glucosamine-6-phosphate [4] = variants of: B1; experiment: self-cleavage kobs at 160 uM GlcN6P; higher = faster cleavage; RNA array
Method in brief: as §1

glucosamine-6-phosphate [5] = variants of: B1; experiment: self-cleavage kobs at 2500 uM GlcN6P; higher = faster cleavage; RNA array
Method in brief: as §1

For A14G A15U G29A, which “self-cleavage kobs at 40 uM GlcN6P” value (glucosamine-6-phosphate [1]) is on record?
Its value is 3.49e-05 ± 1.3e-05 s⁻¹.

What about the “self-cleavage kobs at 10000 uM GlcN6P” value (glucosamine-6-phosphate [2]) of the same variant?
The value was 0.00133 ± 0.00028 s⁻¹.

How did the “self-cleavage kobs at 40 uM GlcN6P” value (glucosamine-6-phosphate [1]) turn out when G41U G63C C70A was run?
Its value is < 1e-05 s⁻¹.

Which “self-cleavage kobs at 40 uM GlcN6P” value (glucosamine-6-phosphate [1]) does the source give for A6G C50U C58U U65G here?
Its value is < 1e-05 s⁻¹.

And the “self-cleavage kobs at 640 uM GlcN6P” value (glucosamine-6-phosphate [3])?
Its value is < 1e-05 s⁻¹.

What about the “self-cleavage kobs at 10000 uM GlcN6P” value (glucosamine-6-phosphate [2]) of the same variant?
Its value is < 1e-05 s⁻¹.

Which results are given for G7U G9A A14U C50G?
self-cleavage kobs at 40 uM GlcN6P (glucosamine-6-phosphate [1]): 0.000146 ± 5.4e-05 s⁻¹; self-cleavage kobs at 160 uM GlcN6P (glucosamine-6-phosphate [4]): 0.000138 ± 3.6e-05 s⁻¹; self-cleavage kobs at 640 uM GlcN6P (glucosamine-6-phosphate [3]): 0.000267 ± 5.8e-05 s⁻¹; self-cleavage kobs at 2500 uM GlcN6P (glucosamine-6-phosphate [5]): 0.000647 ± 0.00016 s⁻¹; self-cleavage kobs at 10000 uM GlcN6P (glucosamine-6-phosphate [2]): 0.000226 ± 5.3e-05 s⁻¹

Which results are given for A14C C50G C68A?
self-cleavage kobs at 40 uM GlcN6P (glucosamine-6-phosphate [1]): 4.86e-05 ± 1.6e-05 s⁻¹; self-cleavage kobs at 10000 uM GlcN6P (glucosamine-6-phosphate [2]): 0.000123 ± 2.5e-05 s⁻¹

Which results are given for G44C C71A?
self-cleavage kobs at 40 uM GlcN6P (glucosamine-6-phosphate [1]): < 1e-05 s⁻¹; self-cleavage kobs at 160 uM GlcN6P (glucosamine-6-phosphate [4]): < 1e-05 s⁻¹; self-cleavage kobs at 640 uM GlcN6P (glucosamine-6-phosphate [3]): < 1e-05 s⁻¹

With C10A G41C A48C C58G as the variant, how does the “self-cleavage kobs at 40 uM GlcN6P” value (glucosamine-6-phosphate [1]) read?
Its value is < 1e-05 s⁻¹.

With A12U A14G C68U as the variant, how does the “self-cleavage kobs at 40 uM GlcN6P” value (glucosamine-6-phosphate [1]) read?
The value was 0.000526 ± 0.0001 s⁻¹.

What does the source list for A18C?
self-cleavage kobs at 40 uM GlcN6P (glucosamine-6-phosphate [1]): 0.00108 ± 0.0003 s⁻¹; self-cleavage kobs at 160 uM GlcN6P (glucosamine-6-phosphate [4]): 0.00647 ± 0.0023 s⁻¹; self-cleavage kobs at 640 uM GlcN6P (glucosamine-6-phosphate [3]): 0.0169 ± 0.0041 s⁻¹

For C10A U47C U54C G66U, which “self-cleavage kobs at 40 uM GlcN6P” value (glucosamine-6-phosphate [1]) is on record?
Its value is < 1e-05 s⁻¹.

And the “self-cleavage kobs at 10000 uM GlcN6P” value (glucosamine-6-phosphate [2])?
The value was < 1e-05 s⁻¹.

Which “self-cleavage kobs at 40 uM GlcN6P” value (glucosamine-6-phosphate [1]) does the source give for G9C C58G C68A here?
The value was < 1e-05 s⁻¹.

U31C U56G was tested. Which “self-cleavage kobs at 40 uM GlcN6P” value (glucosamine-6-phosphate [1]) did it give?
Its value is 0.000154 ± 1.9e-05 s⁻¹.

What about the “self-cleavage kobs at 160 uM GlcN6P” value (glucosamine-6-phosphate [4]) of the same variant?
The value was 0.000413 ± 9.2e-05 s⁻¹.

What about the “self-cleavage kobs at 640 uM GlcN6P” value (glucosamine-6-phosphate [3]) of the same variant?
Its value is 0.000899 ± 0.00013 s⁻¹.

What about the “self-cleavage kobs at 2500 uM GlcN6P” value (glucosamine-6-phosphate [5]) of the same variant?
The value was 0.00194 ± 0.0003 s⁻¹.

What about the “self-cleavage kobs at 10000 uM GlcN6P” value (glucosamine-6-phosphate [2]) of the same variant?
Its value is 0.00757 ± 0.00091 s⁻¹.

With U31G C34U A42G as the variant, how does the “self-cleavage kobs at 40 uM GlcN6P” value (glucosamine-6-phosphate [1]) read?
The value was < 1e-05 s⁻¹.

And the “self-cleavage kobs at 160 uM GlcN6P” value (glucosamine-6-phosphate [4])?
Its value is < 1e-05 s⁻¹.

What about the “self-cleavage kobs at 640 uM GlcN6P” value (glucosamine-6-phosphate [3]) of the same variant?
Its value is < 1e-05 s⁻¹.

What about the “self-cleavage kobs at 2500 uM GlcN6P” value (glucosamine-6-phosphate [5]) of the same variant?
The value was < 1e-05 s⁻¹.

What about the “self-cleavage kobs at 10000 uM GlcN6P” value (glucosamine-6-phosphate [2]) of the same variant?
Its value is < 1e-05 s⁻¹.

What does the source list for A42C G51C?
self-cleavage kobs at 40 uM GlcN6P (glucosamine-6-phosphate [1]): < 1e-05 s⁻¹; self-cleavage kobs at 160 uM GlcN6P (glucosamine-6-phosphate [4]): < 1e-05 s⁻¹; self-cleavage kobs at 640 uM GlcN6P (glucosamine-6-phosphate [3]): < 1e-05 s⁻¹; self-cleavage kobs at 10000 uM GlcN6P (glucosamine-6-phosphate [2]): < 1e-05 s⁻¹

For C10G A15G U30G G63U, which “self-cleavage kobs at 40 uM GlcN6P” value (glucosamine-6-phosphate [1]) is on record?
Its value is < 1e-05 s⁻¹.

What about the “self-cleavage kobs at 640 uM GlcN6P” value (glucosamine-6-phosphate [3]) of the same variant?
Its value is < 1e-05 s⁻¹.

And the “self-cleavage kobs at 10000 uM GlcN6P” value (glucosamine-6-phosphate [2])?
Its value is < 1e-05 s⁻¹.

For G41A G43C U49A C50G C58A, which “self-cleavage kobs at 40 uM GlcN6P” value (glucosamine-6-phosphate [1]) is on record?
The value was < 1e-05 s⁻¹.

With C8A G60U as the variant, how does the “self-cleavage kobs at 40 uM GlcN6P” value (glucosamine-6-phosphate [1]) read?
The value was < 1e-05 s⁻¹.

And the “self-cleavage kobs at 160 uM GlcN6P” value (glucosamine-6-phosphate [4])?
Its value is < 1e-05 s⁻¹.

What about the “self-cleavage kobs at 640 uM GlcN6P” value (glucosamine-6-phosphate [3]) of the same variant?
Its value is < 1e-05 s⁻¹.

And the “self-cleavage kobs at 2500 uM GlcN6P” value (glucosamine-6-phosphate [5])?
The value was < 1e-05 s⁻¹.

Which results are given for G38U G59C?
self-cleavage kobs at 40 uM GlcN6P (glucosamine-6-phosphate [1]): < 1e-05 s⁻¹; self-cleavage kobs at 640 uM GlcN6P (glucosamine-6-phosphate [3]): < 1e-05 s⁻¹; self-cleavage kobs at 2500 uM GlcN6P (glucosamine-6-phosphate [5]): < 1e-05 s⁻¹

For G41C U47C C68U, which “self-cleavage kobs at 40 uM GlcN6P” value (glucosamine-6-phosphate [1]) is on record?
The value was < 1e-05 s⁻¹.

And the “self-cleavage kobs at 640 uM GlcN6P” value (glucosamine-6-phosphate [3])?
Its value is < 1e-05 s⁻¹.

How did the “self-cleavage kobs at 40 uM GlcN6P” value (glucosamine-6-phosphate [1]) turn out when G9A A14C G37C G38U U49C U69A was run?
Its value is < 1e-05 s⁻¹.

Which results are given for G44A U69A?
self-cleavage kobs at 40 uM GlcN6P (glucosamine-6-phosphate [1]): < 1e-05 s⁻¹; self-cleavage kobs at 160 uM GlcN6P (glucosamine-6-phosphate [4]): < 1e-05 s⁻¹; self-cleavage kobs at 640 uM GlcN6P (glucosamine-6-phosphate [3]): < 1e-05 s⁻¹; self-cleavage kobs at 2500 uM GlcN6P (glucosamine-6-phosphate [5]): < 1e-05 s⁻¹; self-cleavage kobs at 10000 uM GlcN6P (glucosamine-6-phosphate [2]): < 1e-05 s⁻¹

With A48C G51U C58G as the variant, how does the “self-cleavage kobs at 40 uM GlcN6P” value (glucosamine-6-phosphate [1]) read?
Its value is < 1e-05 s⁻¹.

For G29C A33C U69A, which “self-cleavage kobs at 40 uM GlcN6P” value (glucosamine-6-phosphate [1]) is on record?
The value was < 1e-05 s⁻¹.

What does the source list for C10U G37C A42C?
self-cleavage kobs at 40 uM GlcN6P (glucosamine-6-phosphate [1]): < 1e-05 s⁻¹; self-cleavage kobs at 2500 uM GlcN6P (glucosamine-6-phosphate [5]): < 1e-05 s⁻¹; self-cleavage kobs at 10000 uM GlcN6P (glucosamine-6-phosphate [2]): < 1e-05 s⁻¹

How did the “self-cleavage kobs at 40 uM GlcN6P” value (glucosamine-6-phosphate [1]) turn out when U47C C61U was run?
The value was < 1e-05 s⁻¹.

And the “self-cleavage kobs at 160 uM GlcN6P” value (glucosamine-6-phosphate [4])?
The value was < 1e-05 s⁻¹.

What about the “self-cleavage kobs at 640 uM GlcN6P” value (glucosamine-6-phosphate [3]) of the same variant?
The value was < 1e-05 s⁻¹.

And the “self-cleavage kobs at 2500 uM GlcN6P” value (glucosamine-6-phosphate [5])?
Its value is < 1e-05 s⁻¹.

And the “self-cleavage kobs at 10000 uM GlcN6P” value (glucosamine-6-phosphate [2])?
Its value is < 1e-05 s⁻¹.
